Test results as given in paper PMC11064669.
pKd: −log10 of the molar value.

Assays:
[1] = target: LC3B residues 1-120 F52A/L53A (UniProt Q9GZQ8); assay: ITC
LC3B residues 1-120 WT = LC3B residues 1-120 WT (UniProt Q9GZQ8); assay: ITC

pKd [1]: < 3.52
pKd (LC3B residues 1-120 WT): 4.35
stoichiometry N (LC3B residues 1-120 WT): 0.523
Substance: tepsin LIR motif peptide (residues 185-193)
